For assay [1], the target named is Human plasma fibronectin (human). The assay is described as follows: SPR; Biacore T100, 25 °C; fibronectin (10 μg/ml) directly immobilized on CM5 chip; CSGal-1 injected at 30 μl/min; 10 mM HEPES pH 7.4, 150 mM NaCl, 3 mM EDTA, 0.0005% TWEEN-20; steady-state model.
Assay [2] addresses recombinant mouse α5β1 integrin protein (mouse) (UniProt P11688). The assay is described as follows: SPR; Biacore T100, 25 °C; α5β1 integrin (1 μg/ml) captured by anti-α5 integrin antibody on CM5 chip; CSGal-1 injected at 30 μl/min; 10 mM HEPES pH 7.4, 150 mM NaCl, 3 mM EDTA, 0.0005% TWEEN-20; steady-state model. Background: Surface plasmon resonance follows binding to a sensor surface in real time, without labels.

Sequence of Human plasma fibronectin (human) (P02751 other isoform, or with tags, fused parts or gaps): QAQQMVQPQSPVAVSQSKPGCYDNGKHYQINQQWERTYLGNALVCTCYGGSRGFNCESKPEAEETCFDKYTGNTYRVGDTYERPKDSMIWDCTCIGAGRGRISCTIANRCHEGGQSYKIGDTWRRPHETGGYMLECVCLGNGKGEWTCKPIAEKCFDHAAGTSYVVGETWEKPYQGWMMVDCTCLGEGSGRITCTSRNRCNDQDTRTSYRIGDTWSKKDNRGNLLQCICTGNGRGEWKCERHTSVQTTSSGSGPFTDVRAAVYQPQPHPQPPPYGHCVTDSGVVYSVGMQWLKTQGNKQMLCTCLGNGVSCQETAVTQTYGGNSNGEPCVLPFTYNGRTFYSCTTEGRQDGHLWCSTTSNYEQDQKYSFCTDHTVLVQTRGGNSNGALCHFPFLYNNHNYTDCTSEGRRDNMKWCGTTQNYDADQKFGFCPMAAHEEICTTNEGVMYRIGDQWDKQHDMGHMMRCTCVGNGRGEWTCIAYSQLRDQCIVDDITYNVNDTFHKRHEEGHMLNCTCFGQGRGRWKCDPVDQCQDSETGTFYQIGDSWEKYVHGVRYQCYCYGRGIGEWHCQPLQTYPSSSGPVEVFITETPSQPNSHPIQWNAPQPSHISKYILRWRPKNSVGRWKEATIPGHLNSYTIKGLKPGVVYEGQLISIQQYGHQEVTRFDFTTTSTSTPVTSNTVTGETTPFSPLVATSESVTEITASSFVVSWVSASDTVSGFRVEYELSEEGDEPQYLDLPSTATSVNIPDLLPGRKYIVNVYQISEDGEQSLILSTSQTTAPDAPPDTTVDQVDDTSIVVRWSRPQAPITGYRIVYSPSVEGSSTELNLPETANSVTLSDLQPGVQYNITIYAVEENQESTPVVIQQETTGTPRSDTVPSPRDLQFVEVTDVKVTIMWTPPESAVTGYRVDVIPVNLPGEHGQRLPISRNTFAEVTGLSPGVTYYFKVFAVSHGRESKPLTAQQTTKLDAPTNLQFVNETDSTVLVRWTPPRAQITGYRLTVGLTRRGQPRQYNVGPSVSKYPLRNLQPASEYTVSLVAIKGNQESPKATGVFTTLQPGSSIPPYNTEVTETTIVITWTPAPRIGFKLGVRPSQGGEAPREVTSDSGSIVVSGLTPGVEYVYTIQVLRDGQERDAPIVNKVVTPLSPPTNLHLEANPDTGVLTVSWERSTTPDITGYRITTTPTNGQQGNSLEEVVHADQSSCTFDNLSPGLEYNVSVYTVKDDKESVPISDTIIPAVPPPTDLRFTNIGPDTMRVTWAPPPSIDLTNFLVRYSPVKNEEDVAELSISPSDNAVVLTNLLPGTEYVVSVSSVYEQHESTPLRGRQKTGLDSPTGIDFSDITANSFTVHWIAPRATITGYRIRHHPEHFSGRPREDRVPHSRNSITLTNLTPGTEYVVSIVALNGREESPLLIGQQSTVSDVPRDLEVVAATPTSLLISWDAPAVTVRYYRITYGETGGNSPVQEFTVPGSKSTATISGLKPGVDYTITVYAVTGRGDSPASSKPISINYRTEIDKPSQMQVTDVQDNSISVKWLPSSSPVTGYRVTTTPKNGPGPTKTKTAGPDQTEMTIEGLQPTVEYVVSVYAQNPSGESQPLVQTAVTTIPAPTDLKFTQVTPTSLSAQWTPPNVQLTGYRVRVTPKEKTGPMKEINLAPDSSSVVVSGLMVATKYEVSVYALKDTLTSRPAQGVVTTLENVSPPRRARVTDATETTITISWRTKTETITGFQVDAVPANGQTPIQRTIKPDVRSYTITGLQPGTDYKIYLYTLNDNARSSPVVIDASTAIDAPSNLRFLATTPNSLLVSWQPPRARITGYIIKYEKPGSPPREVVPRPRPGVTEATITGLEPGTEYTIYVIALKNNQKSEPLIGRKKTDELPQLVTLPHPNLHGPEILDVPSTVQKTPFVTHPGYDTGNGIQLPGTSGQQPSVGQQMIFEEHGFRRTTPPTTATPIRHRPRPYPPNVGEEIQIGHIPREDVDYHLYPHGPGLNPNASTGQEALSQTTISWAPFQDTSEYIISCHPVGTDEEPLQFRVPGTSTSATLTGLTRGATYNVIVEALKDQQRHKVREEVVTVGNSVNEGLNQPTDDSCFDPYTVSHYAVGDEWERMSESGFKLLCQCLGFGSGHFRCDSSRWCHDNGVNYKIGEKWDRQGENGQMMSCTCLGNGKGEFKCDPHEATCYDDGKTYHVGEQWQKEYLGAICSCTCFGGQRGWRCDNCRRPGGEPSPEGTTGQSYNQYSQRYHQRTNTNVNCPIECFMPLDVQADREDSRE

Turning to “CSGal-1, cysteine-less mutant of human galectin-1, tag-free recombinant protein (from UniProt P09382 1-135) (natural protein)”, the results for the Kd in assay [1] and in assay [2] were 12.4 µM and 0.852 µM, respectively.

These data come from article PMC6068105.
